From IntAct's records for PubMed 20150893

B1: Signal transducing adapter molecule 1 (Homo sapiens), Q92783 (parent)
chain: MPLFATNPFDQDVEKATSEMNTAEDWGLILDICDKVGQSRTGPKDCLRSIMRRVNHKDPHVAMQALTLLGACVSNCGKIFHLEVCSRDFASEVSNVLNKGHPKVCEKLKALMVEWTDEFKNDPQLSLISAMIKNLKEQGVTFPAIGSQAAEQAKASPALVAKDPGTVANKKEEEDLAKAIELSLKEQRQQSTTLSTLYPSTSSLLTNHQHEGRKVRAIYDFEAAEDNELTFKAGEIITVLDDSDPNWWKGETHQGIGLFPSNFVTADLTAEPEMIKTEKKTVQFSDDVQVETIEPEPEPAFIDEDKMDQLLQMLQSTDPSDDQPDLPELLHLEAMCHQMGPLIDEKLEDIDRKHSELSELNVKVMEALSLYTKLMNEDPMYSMYAKLQNQPYYMQSSGVSGSQVYAGPPPSGAYLVAGNAQMSHLQSYSLPPEQLSSLSQAVVPPSANPALPSQQTQAAYPNTMVSSVQGNTYPSQAPVYSPPPAATAAAATADVTLYQNAGPNMPQVPNYNLTSSTLPQPGGSQQPPQPQQPYSQKALL
B2: Vacuolar protein sorting-associated protein 27 (Saccharomyces cerevisiae), P40343 (parent)
chain: MSVSTPSELDALIEQATSESIPNGDLDLPIALEISDVLRSRRVNPKDSMRCIKKRILNTADNPNTQLSSWKLTNICVKNGGTPFIKEICSREFMDTMEHVILREDSNEELSELVKTILYELYVAFKNDSQLNYVAKVYDKLISRGIKFPEKLTLSNSPTAMFDSKTPADWIDSDACMICSKKFSLLNRKHHCRSCGGVFCQEHSSNSIPLPDLGIYEPVRVCDSCFEDYDLKRHDDSKKSKKHRHKRKKDRDYSTPEDEEELIRKAIELSLKESRNSASSEPIVPVVESKNEVKRQEIEEEEDPDLKAAIQESLREAEEAKLRSERQKASRQMQPQQPSPQPQPIHSVDLSDEEKDSIYMFASLVEKMKSRPLNEILEDSKLQNLAQRVFASKARLNYALNDKAQKYNTLIEMNGKISEIMNIYDRLLEQQLQSINLSQQYTLPQVPSDPYNYLTENVQNPAESYQTPPLQQLSSHQYKPQQDVSRQQSVKANSSPTTNIDHLKTIDVTPHAQQKPQSHVELAPSDPPYPKEEAEDEGTQAVQDEESSTQESRERPYPVETENGETSINKRPQGITRYDFPTVPARKFVQPESTVPLPASSSEIPIKEERPPSPQEELLIEL
B3: Class E vacuolar protein-sorting machinery protein HSE1 (Saccharomyces cerevisiae), P38753 (parent)
chain: MSSSAIKIRNALLKATDPKLRSDNWQYILDVCDLVKEDPEDNGQEVMSLIEKRLEQQDANVILRTLSLTVSLAENCGSRLRQEISSKNFTSLLYALIESHSVHITLKKAVTDVVKQLSDSFKDDPSLRAMGDLYDKIKRKAPYLVQPNVPEKHNMSTQADNSDDEELQKALKMSLFEYEKQKKLQEQEKESAEVLPQQQQQHQQQNQAPAHKIPAQTVVRRVRALYDLTTNEPDELSFRKGDVITVLEQVYRDWWKGALRGNMGIFPLNYVTPIVEPSKEEIEKEKNKEAIVFSQKTTIDQLHNSLNAASKTGNSNEVLQDPHIGDMYGSVTPLRPQVTRMLGKYAKEKEDMLSLRQVLANAERSYNQLMDRAANAHISPPVPGPALYAGMTHANNTPVMPPQRQSYQSNEYSPYPSNLPIQHPTNSANNTPQYGYDLGYSVVSQPPPGYEQ

Variants of: B1
Settings: with ubb_bovin UBB

Variant | effect of a mutation on the interaction
W26A | disrupting interaction

Variants of: B1
Settings: with ubb_bovin UBB
Remark: another data set of the same source

Variant | effect of a mutation on the interaction
D31Q | increasing interaction

Variants of: B1
Settings: with ubb_bovin UBB
Remark: another data set of the same source

Variant | effect of a mutation on the interaction
G27E | decreasing interaction

Variants of: B1
Settings: with ubb_bovin UBB
Remark: another data set of the same source

Variant | effect of a mutation on the interaction
L30D | disrupting interaction

Variants of: B2
Settings: with ubb_bovin UBB

Variant | effect of a mutation on the interaction
S270D | disrupting interaction
A266Q | disrupting interaction

Variants of: B3
Settings: with ubb_bovin UBB

Variant | effect of a mutation on the interaction
MSSSAIKIRNALLKATDPKLRSDNWQYILDVCDLVKEDPEDNGQEVMSLIEKRLEQQDANVILRTLSLTVSLAENCGSRLRQEISSKNFTSLLYALIESHSVHITLKKAVTDVVKQLSDSFKDDPSLRAMGDLYDKIKRKAPYLVQPNVPEKHNMSTQADNSDDEELQKQLKMSLFEYEKQKKLQEQEKESAEVLPQQQQQHQQQNQAPAHKIPAQTVVRRVRALYDLTTNEPDELSFRKGDVITVLEQVYRDWWKGALRGNMGIFPLNYVTPIVEPSKEEIEKEKNKEAIVFSQKTTIDQLHNSLNAASKTGNSNEVLQDPHIGDMYGSVTPLRPQVTRMLGKYAKEKEDMLSLRQVLANAERSYNQLMDRAANAHISPPVPGPALYAGMTHANNTPVMPPQRQSYQSNEYSPYPSNLPIQHPTNSANNTPQYGYDLGYSVVSQPPPGYEQ [A170Q] | disrupting interaction
MSSSAIKIRNALLKATDPKLRSDNWQYILDVCDLVKEDPEDNGQEVMSLIEKRLEQQDANVILRTLSLTVSLAENCGSRLRQEISSKNFTSLLYALIESHSVHITLKKAVTDVVKQLSDSFKDDPSLRAMGDLYDKIKRKAPYLVQPNVPEKHNMSTQADNSDDEELQKALKMDLFEYEKQKKLQEQEKESAEVLPQQQQQHQQQNQAPAHKIPAQTVVRRVRALYDLTTNEPDELSFRKGDVITVLEQVYRDWWKGALRGNMGIFPLNYVTPIVEPSKEEIEKEKNKEAIVFSQKTTIDQLHNSLNAASKTGNSNEVLQDPHIGDMYGSVTPLRPQVTRMLGKYAKEKEDMLSLRQVLANAERSYNQLMDRAANAHISPPVPGPALYAGMTHANNTPVMPPQRQSYQSNEYSPYPSNLPIQHPTNSANNTPQYGYDLGYSVVSQPPPGYEQ [S174D] | disrupting interaction
